Assay results: article PMC3608532, “Characterization of a Single-Chain Variable Fragment Recognizing a Linear Epitope of Aβ: A Biotechnical Tool for Studies on Alzheimer’s Disease?” (PLoS ONE, 2013)

Key:
Experiment in all cases: SPR; Biacore X; Aβ peptides coupled via the C-terminal cysteine to a CM5 chip; IC16 injected (10 to 1000 nM), 20 µl/min, PBS, 25°C; global fit, bivalent binding model
Conditions in all cases: both partners purified
[1] = target: T1, Aβ(3-8)-GSGSC (human)
T1 construct: amyloid-β peptide (Aβ), cut from the amyloid precursor protein (APP), human, residues 3-8; C-terminal spacer with the cysteine by which the peptide was coupled to the chip; source: synthetic peptide, bought: JPT
T1 chain: EFRHDSGSGSC

[2] = target: T2, Aβ(2-8)-GSGSC (human)
T2 construct: amyloid-β peptide (Aβ), cut from the amyloid precursor protein (APP), human, residues 2-8; C-terminal spacer with the cysteine by which the peptide was coupled to the chip; source: synthetic peptide, bought: JPT
T2 chain: AEFRHDSGSGSC

[3] = target: T3, Aβ(1-8)-GSGSC (human)
T3 construct: amyloid-β peptide (Aβ), cut from the amyloid precursor protein (APP), human, residues 1-8; C-terminal spacer with the cysteine by which the peptide was coupled to the chip; source: synthetic peptide, bought: JPT
T3 chain: DAEFRHDSGSGSC

B1: monoclonal IgG2a antibody IC16 (antibody, V domains shown)
VH: QVTLKESGPGILQPSQTLSLTCSFSGFSLSTSGMGVSWIRQPSGKGLEWLAHIFWDDDKNYNPSLKSRLTVSKDTSRNQVFLKITSVDTSDTATYYCARSPHLRGYDVDFDYWGQGTTLTVSS
VL: DVLMTQTPLSLPVSLGDQASISCRSSQSLVHSNGNTYLHWYLQKPGQSPKVLIYKVSNRFSGVPDRFSGSGSGTDFTLKISRVEAEDLGVYFCSQSTHVPLTFGAGTKLELK
notes: IgG2a; raised in a PrP knockout mouse against KLH Aβ(1-16); also called monoclonal parent antibody IC16; source: IC16 hybridoma (mouse); copies: 2 + 2
Kd [1]: 82 nM | koff [1]: 0.00343 s⁻¹ | kon [1]: 41700 M⁻¹ s⁻¹ | Kd [2]: 32 nM | koff [2]: 0.00154 s⁻¹ | kon [2]: 48500 M⁻¹ s⁻¹ | Kd [3]: 51 nM | koff [3]: 0.0018 s⁻¹ | kon [3]: 35000 M⁻¹ s⁻¹
